# Assay results as given in the Immune Epitope Database (IEDB).
# Key:
# HLA-B*44:03 = assay: IEDB peptide-MHC binding, purified MHC/competitive/radioactivity; filed as Kd, often an IC50 or EC50 that approximates it; ≥ and ≤ were set here for values at or beyond the usual limits of such assays; conditions: source organism: Dengue virus 2 Peru/IQT2913/1996
# HLA-B*44:02 = assay: as above; conditions: source organism: Dengue virus 2 Peru/IQT2913/1996
# HLA-A*32:01 = assay: as above
# HLA-B*15:01 [1] = assay: as above
# HLA-B*07:02 = assay: as above
# HLA-A*24:02 = assay: as above
# HLA-A*23:01 = assay: as above
# HLA-A*01:01 [2] = assay: as above
# HLA-A*26:01 = assay: as above
# HLA-A*30:02 = assay: as above
# HLA-A*29:02 = assay: as above
# HLA-B*15:01 [3] = assay: IEDB peptide-MHC binding, purified MHC/direct/fluorescence; filed as Kd, often an IC50 or EC50 that approximates it; ≥ and ≤ were set here for values at or beyond the usual limits of such assays; conditions: source organism: SARS-CoV1
# HLA-A*03:01 = assay: as above; conditions: source organism: SARS-CoV1
# HLA-A*01:01 [4] = assay: as above; conditions: source organism: SARS-CoV1
# HLA-B*58:01 = assay: as above; conditions: source organism: SARS-CoV1
# [5] = source organism: Vaccinia virus WR
# [6] = source organism: Dengue virus 1 Brazil/97-11/1997
# [7] = source organism: Vaccinia virus Copenhagen
# [8] = source organism: SARS coronavirus Tor2
# [9] = source organism: Dengue virus 2 Jamaica/1409/1983
# [10] = source organism: Mammarenavirus machupoense
# [11] = source organism: Dengue virus 4 Philippines/H241/1956
# [12] = source organism: Mammarenavirus caliense
sequence,measurement,setting,value
TELRYSWKTW,Kd,HLA-B*44:03,33 nM
same,Kd,HLA-B*44:02,7.9 nM
same,Kd,HLA-A*32:01; source organism: Dengue virus 2 Peru/IQT2913/1996,2420 nM
KAAKRISHG,Kd,HLA-B*15:01 [1]; [5],7690 nM
YICILINHG,Kd,HLA-B*15:01 [1]; [5],813 nM
STLIFFVII,Kd,HLA-A*32:01; [5],17.8 nM
MATFKMRPM,Kd,HLA-B*07:02; [6],158 nM
YSIFLIFSI,Kd,HLA-A*32:01; [7],951 nM
GSIIQFPNTY,Kd,HLA-A*24:02; [8],≥ 70300 nM
same,Kd,HLA-A*23:01; [8],≥ 70000 nM
same,Kd,HLA-A*01:01 [2]; [8],1050 nM
same,Kd,HLA-A*26:01; [8],1880 nM
same,Kd,HLA-A*30:02; [8],545 nM
same,Kd,HLA-A*29:02; [8],462 nM
KTWGKAKML,Kd,HLA-A*32:01; [9],39.2 nM
CGDPSSLDY,Kd,HLA-A*24:02; [10],≥ 77500 nM
same,Kd,HLA-A*23:01; [10],≥ 77700 nM
same,Kd,HLA-A*01:01 [2]; [10],6.78 nM
same,Kd,HLA-A*26:01; [10],≥ 74600 nM
same,Kd,HLA-A*30:02; [10],870 nM
same,Kd,HLA-A*29:02; [10],4730 nM
CADGTRHTY,Kd,HLA-B*15:01 [3],1260 nM
same,Kd,HLA-A*03:01,9670 nM
same,Kd,HLA-A*01:01 [4],438 nM
same,Kd,HLA-B*58:01,1210 nM
same,Kd,HLA-A*24:02; [8],≥ 37700 nM
same,Kd,HLA-A*23:01; [8],≥ 67600 nM
same,Kd,HLA-A*26:01; [8],2780 nM
same,Kd,HLA-A*30:02; [8],39.8 nM
same,Kd,HLA-A*29:02; [8],963 nM
AILLVAVSF,Kd,HLA-A*32:01; [9],12800 nM
KSYAQMWQLM,Kd,HLA-A*32:01; [6],89.9 nM
AFIDTIKSL,Kd,HLA-A*24:02; [8],10200 nM
same,Kd,HLA-A*23:01; [8],5010 nM
same,Kd,HLA-A*01:01 [2]; [8],≥ 78100 nM
same,Kd,HLA-A*26:01; [8],≥ 34200 nM
same,Kd,HLA-A*30:02; [8],13600 nM
same,Kd,HLA-A*29:02; [8],2950 nM
KITGNLVQI,Kd,HLA-A*32:01; [11],2710 nM
HMLEFLYSF,Kd,HLA-A*32:01; [5],0.296 nM
QLNQLSKSEF,Kd,HLA-B*15:01 [1]; [6],73.1 nM
RQIFIHYSV,Kd,HLA-A*32:01; [7],1.04 nM
KLNQLSRKEF,Kd,HLA-B*15:01 [1]; source organism: Dengue virus 3 Martinique/1243/1999,70.6 nM
LVSLLGSAL,Kd,HLA-B*07:02; [11],44.3 nM
RPVKEKEENL,Kd,HLA-B*07:02; [6],761 nM
KTPVESWEEV,Kd,HLA-A*32:01; [9],1620 nM
PYENLLYKI,Kd,HLA-A*24:02; [12],253 nM
same,Kd,HLA-A*23:01; [12],9.86 nM
same,Kd,HLA-A*29:02; [12],≥ 52400 nM
